Measured values published in PMC11818005, “Elucidation of the key flavonol biosynthetic pathway in golden Camellia and its application in genetic modification of tomato fruit metabolism” (Horticulture Research, 2024).

Tests used:
Experiment in all cases: UPLC-UV of flavonol product, initial kinetics
Conditions in all cases: 100 mM Tricine pH 7.5, 0.1 mM FeSO4, 10 mM ascorbate, 10 mM 2-oxoglutarate, 28°C
[1] = substrate: O=C1c2c(O)cc(O)cc2O[C@H](c2ccc(O)c(O)c2)[C@H]1O; type: biochemical, Arabidopsis thaliana
Text: (§1) UPLC-UV of flavonol product, initial kinetics on AtFLS1

[2] = substrate: O=C1c2c(O)cc(O)cc2O[C@H](c2ccc(O)cc2)[C@H]1O; type: biochemical, Arabidopsis thaliana
Text: as §1

[3] = substrate: O=C1c2c(O)cc(O)cc2O[C@H](c2ccc(O)c(O)c2)[C@H]1O; type: biochemical, Camellia nitidissima
Text: (§2) UPLC-UV of flavonol product, initial kinetics on CnFLS1

[4] = substrate: O=C1c2c(O)cc(O)cc2O[C@H](c2ccc(O)cc2)[C@H]1O; type: biochemical, Camellia nitidissima
Text: as §2

| Protein | Km [1] [µM] | kcat [1] [s⁻¹] | kcat/Km [1] [M⁻¹ s⁻¹] | Km [2] [µM] | kcat [2] [s⁻¹] | kcat/Km [2] [M⁻¹ s⁻¹] | Km [3] [µM] | kcat [3] [s⁻¹] | kcat/Km [3] [M⁻¹ s⁻¹] | Km [4] [µM] | kcat [4] [s⁻¹] | kcat/Km [4] [M⁻¹ s⁻¹] |
| --- | --- | --- | --- | --- | --- | --- | --- | --- | --- | --- | --- | --- |
| AtFLS1 (Arabidopsis thaliana) (protein, cloned for comparison with CnFLS1 (pET28b, E. coli Rosetta (DE3), Ni-NTA purified)) MEVERVQDISSSSLLTEAIPLEFIRSEKEQPAITTFRGPTPAIPVVDLSDPDEESVRRAVVKASEEWGLFQVVNHGIPTELIRRLQDVGRKFFELPSSEKESVAKPEDSKDIEGYGTKLQKDPEGKKAWVDHLFHRIWPPSCVNYRFWPKNPPEYREVNEEYAVHVKKLSETLLGILSDGLGLKRDALKEGLGGEMAEYMMKINYYPPCPRPDLALGVPAHTDLSGITLLVPNEVPGLQVFKDDHWFDAEYIPSAVIVHIGDQILRLSNGRYKNVLHRTTVDKEKTRMSWPVFLEPPREKIVGPLPELTGDDNPPKFKPFAFKDYSYRKLNKLPLD | 29.89 | 0.02 | 794 | 95.01 | 0.11 | 1180 | – | – | – | – | – | – |
| CnFLS1 (Camellia nitidissima) (protein) MELERVQVIASLSKCIDTIPAEYIRSENEQPAITTIQGKVLEVPVIDLSNDSDDQNIVQMVAEACRDWGIFQVVNHGIPDEVIGNLQRVGKDFFELPQEEKEVYAKPPESKSVEGYGTKLQKEVEGKKGWVDHLFHKIWPPSAINYKFWPKNPPSYREANEVYAERLRAVADKLFRWLSLGLGLEGHEVKEAVGGDDLIYLMKINYYPPCPRPDLALGVVAHTDMSTLTILVPNEVPGLQVFKDDHWYEVKYIPNALIVHIGDQIEIVSNGKYKAVFHRSTVNKETTRMSWPVFIEPSPEVEVGPHPKLIDDENPPKYKTKKYEDYMYCKLNKLPQ | – | – | – | – | – | – | 18.68 | 0.02 | 1320 | 60.63 | 0.08 | 1300 |
